The results in this text go back to patent US12297265B2, “Antibody and use thereof” (SICHUAN KELUN-BIOTECH BIOPHARMACEUTICAL CO., LTD., priority 2018, dated 2025).

For test [1], the target named is T1, human Claudin18.2 (Homo sapiens, UniProt P56856). The test can be described thus: FACS positive rate of NUGC-4 cells. In kind it is binding. Also noted: cell lines endogenously expressing human Claudin18.2; host or cells: NUGC-4 human gastric cancer cell line. The note with it: NUGC-4 cells endogenously expressing human Claudin18.2, FACS. The procedure:
To determine binding affinity of the candidate antibodies to cell lines endogenously expressing human Claudin18.2, FACS analysis was performed to detect human Claudin18.2 expression level on NUGC-4 cells (purchased from Japan JCRB cell bank, catalog number: JCRB0834) which endogenously expresses human Claudin18.2. […] The binding affinity between candidate antibodies and NUGC-4 cells was then determined by Cellular ELISA following the same protocol as above.

Test [2] addresses T1, human Claudin18.2. The test can be described thus: Flow cytometry affinity to HEK293T-Claudin 18.2 cells. Set-up: expressed in transfected cells. The test is classed as binding. On the procedure: The affinity of 2C6.9-hz21 to human claudin 18.2 on cell membrane was detected using HEK293T-Claudin 18.2 cells, as follows. HEK293T-Claudin 18.2 cells were detached and centrifuged, followed by washing for twice with PBS. And then the cells were resuspended in PBS containing 1% BSA and were plated into 96-well tip bottom plate at 300000 cells per well in a volume of 50 μl for 20 wells in total. 2C6.9-hz21 or IMAB362 antibody was then added with 11 concentrations starting from 1000 nM with three-fold dilution. Human IgG was served as negative control. The reactions were mixed well and incubated for 1 h at 4° C. in the dark. Following by three times of washing with PBS, the FITC-labelled anti-human Fc secondary antibody (Biolegend, 409322) was added and incubated for 0.5h in the dark. Detection was performed by flow cytometry (Beckman, Cytoflex) after washing for three times with PBS.

The target in test [3] is T1, human Claudin18.2. Description: FACS affinity of chimeric antibodies to Ba/F3-Claudin18.2 cells. In kind it is binding. Set-up: expressed in transfected cells; host or cells: Ba/F3 (BaF/3, DSMZ ACC300), hygromycin-selected monoclonal line. An excerpt: The amino acid sequence of the light chain variable region of 1E9.2, 2C6.9, 6B9.22, 9C8.1, 16A9.11, 19G10.14 or 19H11.6 was linked to the amino acid sequence of the light chain constant region κ (SEQ ID NO: 43) respectively; the amino acid sequence of the heavy chain variable region was linked to the amino acid sequence of IgG1 heavy chain constant region (SEQ ID NO: 42) respectively, to construct the chimeric antibody. Codon optimized cDNA was synthesized and cloned to pcDNA3.4 (synthesized by Nanjing Genscript Biotech Corporation). The pcDNA3.4 plasmids coding the light chain and heavy chain of each antibody were co-transfected to Expi293F cells (purchased from Thermo Fisher). The antibodies were purified from culture supernatant by protein A (MabSelect SuRe, GE). And the purified chimeric antibodies were named 1E9.2-hz00, 2C6.9-hz00, 6B9.22-hz00, 9C8.1-hz00, 16A9.11-hz00, 19G10.14-hz00 and 19H11.6-hz00.
The affinity of the anti-Claudin18.2 chimeric antibodies to Ba/F3-Claudin18.2 cells were determined. […] The cells were then analyzed by FACS.

Another test relates to Ba/F3-Claudin 18.2 cells. The test can be described thus: ADCC activity on Ba/F3-Claudin 18.2 cells (NK-92MI_mCD16, CytoTox-Glo). In kind it is cell-based. The note with it: Ba/F3-Claudin 18.2 target cells, NK-92MI_mCD16 effector cells, 6h. The procedure:
In order to evaluate the ADCC activity, ten thousand Ba/F3-Claudin18.2 cells were cultured in 40 μl NK-92 media. Antibodies were serially diluted in 10 μl PBS. Fifty thousand NK-92MI_mCD16 cells in 50 μl NK-92 media were added and the reactions were incubated at 37° C. for 6h. 33.3 μl CytoTox-Glo (Promega, G9290) was added to each reaction […].

Test [4] addresses T1, human Claudin18.2. Description: Affinity of chimeric and humanized antibodies to Ba/F3-Claudin 18.2 cells (IntelliCyt). In kind it is binding. Set-up: expressed in transfected cells; host or cells: Ba/F3 (BaF/3, DSMZ ACC300), hygromycin-selected monoclonal line. An excerpt: In order to evaluate the anti-Claudin18.2 humanized antibodies, codon optimized cDNAs of the heavy chains and the light chains of the candidate humanized antibodies from Example 6 were synthesized and ligated into pcDNA3.4 (by Nanjing Genscript Biotech Corporation). Expi293F cells (purchased from Thermo Incorporation) were co-transfected with pcDNA3.4 coding the heavy chain and light chain of each antibody. The antibodies were purified from the supernatant using protein A (MabSelect SuRe, GE). The affinity of the humanized antibodies to Claudin18.2 was determined using Ba/F3-Claudin18.2 cells which over-expressed human Claudin18.2. Ba/F3-Claudin18.2 cells (60000 in 10 ul buffer) were incubated with purified humanized antibodies on ice for 30 min, followed by washing with buffer (PBS+2% FBS) twice and addition of Alexa647-labeled goat-anti-human IgG Fc antibody (1:500 dilution). The cells were incubated on ice for another 30 min and analyzed by IntelliCyt.

Marks after values point to notes of the source that are not given here.

With “IMAB362: Zolbetuximab (IMAB362) developed by Astellas, human-mouse chimeric IgG1 antibody targeting Claudin 18.2; control antibody, sequences from CN 101312989 B [reference compound]”, the “NUGC-4 cells tested positive for Claudin 18.2” value with human Claudin18.2 [1] was determined as 20%. The “Max MFI” value in the test with human Claudin18.2 [2] is given as 156715.7; with human Claudin18.2 [3] it was 8.97 ×10^6; in the test with human Claudin18.2 [4] it was 4.99* ×10^6. The “ADCC EC50” value with Ba/F3-Claudin 18.2 cells is recorded as 0.351* μg/mL. Besides, the Max killing rate in the test on Ba/F3-Claudin 18.2 cells is 54.17* %.
